# Values quoted from earlier work, collected in publication PMC4480918.
# Experiments:
# Assay in all cases: NMR
# His80 = His80 (UniProt position 121, KELYGHTLVWH); conditions: free enzyme (not the 2FCb glycosyl-enzyme intermediate)
# His61 = conditions: redox state not stated
# His92 = conditions: redox state not stated
substance,measurement,setting,value
"Catalytic domain of beta-(1,4)-glycosidase Cex (CexCD) (Cellulomonas fimi)",pKa,His80,7.9
Plastocyanin (A.v. Pc) (Anabaena variabilis),pKa,His61,7.1
same,pKa,His92,5.1
